Assay: soluble on expression in E. coli; label from the status in PepcDB or PDB records

Row | Sequence | soluble on expression in E. coli
1 | MADTSPRESKLNKQDQDLHLEIDETGLACKSEVKKRWLGARGTAGLYGNGKYYYEVTITSKGLCRVGWATLGGSLNIGKGLDSFGYGGTGMKSTHKKFDDYGLPFTLNDVIGCYLDLDSRTIWWSKNGEQFPAAFSIDVKYKNSNTCLFPAVLCQNSSLSVNFGSQPFKFPPGNQFTAVSDAPNENVNWWSYEEQNSFEHVVVKLPFAVEEDVHNEFRMHTKLMLTELKRTQCKQDKDGSIRRTLQPISKTICAFLNTDGGRLFLGVNDDKVIKGISMSKNMIYHFFGSLRHMCENFKPCSPLCRIKVSILEVIPVGVIKVKLRKADLLKEEAHDFPKLACHSVGGSFCDCFLEINKAPTKQYLLIIQVSPPNPNSRTTIFQNEEGLVYRRRMASNKCVYLDDLRRMMNEKNQVFVDLPDEARAEIDSFSKFD | not soluble
2 | MADVLERVTKIIVDRLGVEETEVVPAASFKEDLGADSLDVVELVMQLEDEFEMEISDEDAEKIATVGDAVTYIESHL | not soluble
3 | MADYADAVVTQESALTTSPGETVTLTCRSSTGAVTTSNYASWVQEKPDHLFTGLIGGTNNRAPGVPARFSGSLIGDKAALTITGAQTEDEAIYFCALWYSNHWVFGGGTKLTVLGGGGGSGGGGSGGGGSGGGGS | soluble
4 | MAEASPQPGRYFCHCCSVEIVPRLPDYICPRCESGFIEELPEETRNTENGSAPSTAPTDQNRQPFENVDQHLFTLPQGYSQFAFGIFDDSFEIPTFPPGAQADDGRDPESRREREHQSRHRYGARQPRARLTARRATGRHEGVPTLEGIIQQLVNGIISPAAVPSLGLGPWGVLHSNPMDYAWGANGLDTIITQLLNQFENTGPPPADKEKIQALPTVPVTEEHVGSGLECPVCKEDYALGESVRQLPCNHLFHDSCIVPWLEQHDSCPVCRKSLTGQNTATNPPGLTGVGFSSSSSSSSSSSPSNENATSNS | soluble
5 | MAEAYLEYLGKHDVLTKLHNRAFYSDELNRLERSALRPVSAIVIDLNGLKEANDKLGHDAGDALLRRVGEVLNGVVTAPNHAARIGGDEFAILLPGADKQVAAAMVDTVYELLKINNQFYSSAPLSLSLGVATTEAGETMESLVRRADMNMYEQKNAYYAALRNRSADNNDTTKGLEHHHHHH | soluble
6 | MAEEPKGVPLSELSLQQLGELQKNCEQELNFFQESFNALKGLLTRNEKSISALDDVKIATAGHTALIPLSESLYIRAELSDPSKHLVEIGTGYFVELDREKAKAIFDRKKEHITKQVETVEGILKEKRRTRAYISDAFQTKVQSQLATMNTQ | not soluble
7 | MAEHPIQGLMETAMESIKEMVDVNTIVGDAVQAPDGTVIIPISKVTFGFAAGGGEFASCCSVDEKGEDSSDDSSKPEIKFPFAGGSGAGVSINPVAFMVVGQGQIKLLPVNINSSLEKILDLIPEIIEKTKDSVKKNLKVKKEIKPGNGESCAKSSKEDENELEHHHHHH | soluble
8 | MAEKTRYSDAELEEFRAIIMEKLELAQRDYDQLKMSLMGLDGNDTDDTSPTYKVLEEGANTLSKEETTRLAQRQLKFIQGLQAALVRIENKTYGICRETGKLIPAERLRAVPHATLSIEAKNSGKK | not soluble
9 | MAELYDGPIVDAHHHFWDPQANYHPWLAEDAKIPFRYGDYSAIKRRYLPADYFGDVGAHRVVETVYVETEWDPRDPLGETRFVHHLAERHGAPHAVVAQAWLDAPDAAEVLAAQAGFARVRSVRHKPGGPQRPQQVGELRSLMSDERWRRGYAELARHGLHFDLQTPWWNLAEAACLARDFPDTLIVLNHAGLPSDRSEEGLAAWQRAMARFAECPNVALKISGIGQAGRRWSVEDNAWIVRESIALFGVERAMFASNFPVDSLCGSFDDIYGGFKRIVADLPYADQERLFHSNARRIYRTVPDTVRLQQASPDPRTSP | not soluble
10 | MAELYVKPGNKERGWNDPPQFSYGLQTQTGGPKRTPLTKRVAAPQDGSPRAPETSGPPPVDHPPPSSKASRPPPMGSCPATGVEPPSSPVIESETLIEDVLRPLEQALEDCHGHTKKQVCDDISRRLVLLREQWAGGKLSIPVKKRMALLVQELLHHQWDAADDIHRSLMVDYVTEVSQWMVGVKRLIAEKRSLSSEETKEEKFTVEPENQTIPGFQQPS | not soluble
11 | MAENKLGRDIPRKYANQYGVFEGELAHIKSYKESSRQVKPVKPSDDKLLSSIHEAIEKTRLKDGMTISFHHHFREGDYVMNMVLDEIAKMGIKDISIAPSSIANVHEPLIDHIKNGVVTNITSSGLRDKVGAAISEGIMENPVIIRSHGGRARAIATDDIHIDVAFLGAPSSDAYGNANGTRGKTTCGSLGYAMIDAKYADQVVIVTDTLVPYPNTPISIPQTDVDYIVVVDAIGDPEGIAKGATRYTKNPKELLIAEYAAKVITSSPYYKEGFSFQTGTGGASLAVTRFMREQMIKDDIKANFALGGITNAMVELLEEGLVDKILDVQDFDHPSAVSLDRNAEKHYEIDANMYASPLSKGSVINQLDICVLSALEVDTNFNVNVMTGSDGVIRGASGGHCDTAFAAKMSLVISPLVRGRIPTFVDKVNTVITPGTSVDVVVTEVGIAINPNRPDLIEYFKDLKVPQLTIEELKEKAYAIVGNPQPIQYGDKIVALIEYRDGSLIDVVRNVLEHHHHHH | soluble
12 | MAEPKWPSSAKTLPFKFMKEARNPCTRAQKLCSTHRRAAAPPSFSVHLTQKSENSSSEESDHQFASPTSPRPSSSDSFGPSAAPSTSLSPPFLSPSYSMDYIIEAMTSSSSTSPVPPPVSASRPVAPVVARVEGLRAVPVGHRRQHSSPGHLQQFQQELHARHHHANITRLNKKRRNTDTGYDPEARPPKFKHRSPLDEETILVSKTFAIPKYRKGALPAAAAAVVRNEALMDSSDSSDSQSTVKSLDGWRTRTSRSIMTTPEAFSRVRHISITFGEQQHDIDTDHSNQHFGSPSSLHSSLPRAFSPPHKISKARRRQLAVTTSLSETSAFPIPSSLKARSRMSSMSSTQADDEHPISMQNMRNIALGILVPIKQRFFLMQHIPLIEAEMSRFESRVVTAALHPSTFLQNISKSWEELTETVCQLHNAPRLRHPYWLALNEKCHLDGRTLATEFCEQLAYLVRRYDRKEAGYFLSNLVTALLMHHMSWVASVASPPLHNADSKDQIDENSLFGMMSSGAPTVGYNALMAQYLEISGACGNMRSAKICVVGEDLEVLASVCSVLSFFIRCSAVQHVDNDKMWEVPTEQPFSPCDVSNSPSTSCAHQHQQQQQLKNGYQHPEETSSVAMMRRLRNNNQMDTSSTPSTSTAAALLDADVEMVVQTTTEITSTTTTTPRHHHLHHLHSVTIDRLDFPCCPTIADDADMWVPQRPNSEGLGRSMFAGPLNNYCSHFVLSAVQKTDTNMPEVYSRMFDEVRCTDFPCHRSATATPSQSTSSMCDPAMNPENVLIIADIEQLTVKVLSTEGSDEVTSPSESIVAMLEQFVGIHNAVPANAEFLVGIIEDSLAHIVGKSLTLVELVRSDQTVRIQGSERAKKSKILAKIEILLAVCPEIGNFSKFEFPSYRALK | not soluble
13 | MAEPLLVVGLGNPGANYARTRHNLGFVVADLLAARLGAKFKAHKRSGAEVATGRSAGRSLVLAKPRCYMNESGRQIGPLAKFYSVAPANIIVIHDDLDLEFGRIRLKIGGGEGGHNGLRSVVAALGTKDFQRVRIGIGRPPGRKDPAAFVLENFTPAERAEVPTICEQAADATELLIEQGMEPAQNRVHAWKLAAALEHHHHHH | soluble
14 | MAEREQSNDSARTDVPAIVSLRTRELDTGEGRMQWASTLERLYCETDVAWPEPRRHFDAEWGGRPFGDLHVSTIRADAHTVVRSPAMIQSDSGEGYLVCLVTDGSVEVRQSGRATVVEPGSFALLDCAAPFVFHSPAPFRQVVVRSPREVLTSRLPGRIVEHGTARSIHGDTGAGGLVGRLFVDIADMDAPMSQGAAVSFASSAVDMLATALTEGLLATSAADLHRTEDLRRVQRVIEQNLHDADITLSDIAAAAGMSLRTVHKLFNAEGTTTRAWLYQARLEAARKYLLTTDLSVADVSECAGFRDVSHFSRLFRSTFGSSPGLYRKEHARRVS | not soluble
15 | MAERETYADFSVVEKQRNFLTAEEFPEGPYGSPRRDDAPVENKSTPWKEGQRHYSAFNYEFKSFHQNIPRRDPAAHPPHDDPHQSEQFPYNEGE | not soluble
16 | MAESDWDTVTVLRKKGPTAAQAKSKQAILAAQRRGEDVETSKKWAAGQNKQHSITKNTAKLDRETEELHHDRVTLEVGKVIQQGRQSKGLTQKDLATKINEKPQVIADYESGRAIPNNQVLGKIERAIGLKLRGKDIGKPIEKGPRAK | not soluble
17 | MAEVKGMTVFNTEEVNTKKQPMFFGKPLGVQRYDNFKYPSFENLTKQQLGYFWRPEEVSLQKDRGDYQTLRPEQKHIYTSNLKYQIMLDSVQGRAPGMAFLPYCSLPELEACMEVWSFMEMIHSRSYTYVIKNVYADPSEVFDKILSDDRILSRAASVTESYDDFINEAQGWGQSNLWRDMDKSLDTSLPVLEMKEVKRKLYRAVTNVNILEGIRFYVSFACSFAFGELKVMEGSAKIISLIARDENQHLAITQNILNNWRKGDDPEMVEIMKEEEQWTYQMFEKCVNEEKMWAEYLFKDGSMIGLNDKLLHQYVEWVANRRMRSIGMKPVYDIAAKNNPLPWTEHWISSKGLQVAPQETEVESYIVGGIKQDVKKDTFAGFKL | soluble
18 | MAEVLKKVDVVTVGAGWTGGIVAAELTKAGLNVLSLERGHMQSTENFNYIHDEWRYGINYGLMQDCSKDTVTFRHDPSGLALPYRKMGSFLLGNNVGGAGVHWNGWTFRFMPYDFEIQTLSKQRYGNKLGNDYTLQDWGVTYKDMEPYYDRFEKTCGVSGEPNPLAEKMGAFRSSPYPQEPLENTKMLKRFESAAKSSNLHTYRLPASNSKGGYTNPDGQDLAPCQYCAYCERFGCEYGAKASPLNTVIPKAMSTGKYTIRTYSNVTQILKKDGKVTGVKFVDTRTMKEYIQPADIVVLTSYMFNNAKLLMVSNIGEQYDPKTGKGTLGRNYCYQMNMGTTAFFDEQFNTFMGSGALGTTSDDFNGDNFDHSKEKFLHGAMIYSVQLGTRPIQSAPLPAGAPTWGAEFKKALNYNFTRAITVGGQGASLPHKNNYLSLDPTYKDAFGMPLLRLTYNFTDQDRALHKFITDKTAEVAKRMQGVKSIKKGAYLKDYSVVPYQSTHNTGGTTMGADRETSVVNTYLQHWDADNLFVVGAGNFQHNSGYNPTDTVGALAYRCAEGILKYHKSGKSLALEHHHHHH | not soluble
19 | MAFANLRKVLISDSLDPCCRKILQDGGLQVVEKQNLSKEELIAELQDCEGLIVRSATKVTADVINAAEKLQVVGRAGTGVDNVDLEAATRKGILVMNTPNGNSLSAAELTCGMIMCLARQIPQATASMKDGKWERKKFMGTELNGKTLGILGLGRIGREVATRMQSFGMKTIGYDPIISPEVSASFGVQQLPLEEIWPLCDFITVHTPLLPSTTGLLNDNTFAQCKKGVRVVNCARGGIVDEGALLRALQSGQCAGAALDVFTEEPPRDRALVDHENVISCPHLGASTKEAQSRCGEEIAVQFVDMVKGKSLTGVVNAQALTSAFSPHTKPWIGLAEALGTLMRAWAGSPKGTIQVITQGTSLKNAGNCLSPAVIVGLLKEASKQADVNLVNAKLLVKEAGLNVTTSHSPAAPGEQGFGECLLAVALAGAPYQAVGLVQGTTPVLQGLNGAVFRPEVPLRRDLPLLLFRTQTSDPAMLPTMIGLLAEAGVRLLSYQTSLVSDGETWHVMGISSLLPSLEAWKQHVTEAFQFHF | soluble
20 | MAFDKKLLDIVACPVCKGKLEYDKVAQQLICKADKLAYPITDGIPVLLENRALPLTESV | not soluble
21 | MAGAGHKEDKSVTKKLIKKESKSDITIYFKQREESEDNNANPINISRSSEKDRVIMLVNGSNGSKKNLASELNVRRSVAQTGAGGVTQPKPLLNDINTKSHAFIQSRLEKMRKGL | not soluble

From the DeepSol protein solubility set
